This is an account of results in PMC11063897, “Structural analysis of the SAM domain of the Arabidopsis mitochondrial tRNA import receptor”.

What all share (experiment): EMSA; 160 uM protein, 120 nM RNA; 15 mM Tris-HCl pH 7.0, 150 mM NaCl, 10% glycerol, 2 U/ul RNase inhibitor, 22 C, 15 min; 6% native TBE PAGE in 0.5x TBE
Common to all, as to conditions: protein: recombinant; tags: N-terminal His6, thrombin site; label: 5'-6-FAM
In general terms: In EMSA bound probe runs differently from free probe, usually more slowly.

The target in data set [1] is T1, Tric1 SAM domain Asp235Ala (Arabidopsis thaliana, UniProt Q9SCK3, D235A).
T1 sequence: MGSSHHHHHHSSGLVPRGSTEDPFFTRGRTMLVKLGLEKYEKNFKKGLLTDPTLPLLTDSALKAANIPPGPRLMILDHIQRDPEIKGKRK

Data set [2] deals with T2, Tric1 SAM domain Gly241Glu (Arabidopsis thaliana, UniProt Q9SCK3, G241E).
T2 sequence: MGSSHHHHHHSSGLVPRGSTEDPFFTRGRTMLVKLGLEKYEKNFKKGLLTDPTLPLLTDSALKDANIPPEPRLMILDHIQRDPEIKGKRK

Another data set addresses T3, Tric1 SAM domain WT (Arabidopsis thaliana, UniProt Q9SCK3).
T3 sequence: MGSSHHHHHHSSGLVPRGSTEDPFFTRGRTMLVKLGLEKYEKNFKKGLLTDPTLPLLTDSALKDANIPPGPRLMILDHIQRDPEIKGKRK

Data set [3] concerns the target T4, Tric1 SAM domain Asp235Ala:Gly241Glu (Arabidopsis thaliana, UniProt Q9SCK3, D235A;G241E).
T4 sequence: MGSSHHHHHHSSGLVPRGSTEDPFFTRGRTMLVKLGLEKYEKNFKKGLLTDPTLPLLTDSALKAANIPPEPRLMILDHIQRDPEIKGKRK

Regarding UCGCUUUGCAUGCGA (structured_RNA) [tRNAala T-arm], the binding result is “no binding” in data set [1], “no binding” in data set [2], “binds” with Tric1 SAM domain WT and “no binding” in data set [3].
